Assay results published in patent US20210238276A1 (INTEGRAL MOLECULAR, published 2021).

Assays:
Experiment in all cases: flow cytometry, transfected HEK-293T
mouse GLUT1 (mmGLUT1) = biological target: T1, mouse GLUT1 (mmGLUT1) (mouse, UniProt P17809 1-492)
T1 construct: whole, on cells
T1 sequence (looked up): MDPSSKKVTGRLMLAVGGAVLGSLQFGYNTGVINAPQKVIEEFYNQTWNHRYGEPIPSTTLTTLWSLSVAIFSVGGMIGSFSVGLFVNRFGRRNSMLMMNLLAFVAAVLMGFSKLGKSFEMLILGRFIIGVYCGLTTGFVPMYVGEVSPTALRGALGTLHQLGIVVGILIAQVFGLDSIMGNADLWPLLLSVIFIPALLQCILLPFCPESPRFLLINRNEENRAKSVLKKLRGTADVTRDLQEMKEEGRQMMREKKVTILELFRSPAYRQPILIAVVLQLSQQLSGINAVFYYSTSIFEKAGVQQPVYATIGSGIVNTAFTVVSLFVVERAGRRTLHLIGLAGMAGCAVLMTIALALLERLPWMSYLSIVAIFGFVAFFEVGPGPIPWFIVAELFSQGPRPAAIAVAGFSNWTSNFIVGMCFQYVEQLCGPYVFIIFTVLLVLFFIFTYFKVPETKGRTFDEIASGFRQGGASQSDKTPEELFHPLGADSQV
Procedure: (§1) HEK-293T cells were transfected by CaPO₄ with plasmids in 6-well culture plates (Falcon) at 750,000 cells/well. At 48 hours post transfection, cells were stained with anti-V5 and anti-GLUT4 MAbs (purified scFv, 2 μg/ml) followed by biotinylated goat anti-mouse or human antibody (1:500) and streptavidin-PerCP (1:500). Fluorescence was detected using an Intellicyt high-throughput flow cytometer (HTFC; Intellicyt, Albuquerque, N. Mex.). For cell permeabilization, cells were treated with saponin at 0.1% in PBS for 20 minutes. To discriminate intact (live) and permeabilized (dead) cells without the use of detergent, propidium iodide (PI) was added to HEK-293T cells at 1 ug/ml just prior to flow cytometry. Where indicated, cytochalasin B (Sigma) was used at a final concentration of 10 uM and phloretin (Sigma) was used at a final concentration of 100 uM, each added in 10% NGS for 30 minutes prior to antibody staining as well as included with the primary antibody.

human GLUT1 (hsGLUT1) = biological target: T2, human GLUT1 (hsGLUT1) (human, UniProt P11166 1-492)
T2 construct: whole, on cells
T2 sequence (looked up): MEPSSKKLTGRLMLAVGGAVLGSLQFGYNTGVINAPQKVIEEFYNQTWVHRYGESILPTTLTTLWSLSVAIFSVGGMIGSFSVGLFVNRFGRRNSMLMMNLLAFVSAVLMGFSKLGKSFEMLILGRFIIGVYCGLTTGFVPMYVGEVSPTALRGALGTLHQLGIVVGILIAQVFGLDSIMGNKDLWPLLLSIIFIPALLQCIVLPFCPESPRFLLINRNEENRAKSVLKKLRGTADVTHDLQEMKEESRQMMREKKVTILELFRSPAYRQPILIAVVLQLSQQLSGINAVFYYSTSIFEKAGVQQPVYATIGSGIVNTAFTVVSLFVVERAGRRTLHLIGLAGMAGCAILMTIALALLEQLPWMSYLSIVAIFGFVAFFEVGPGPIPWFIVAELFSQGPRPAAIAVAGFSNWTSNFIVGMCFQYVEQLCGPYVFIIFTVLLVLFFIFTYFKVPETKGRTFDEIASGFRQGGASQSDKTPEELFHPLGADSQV
Procedure: as §1

human GLUT2 (hsGLUT2) = biological target: T3, human GLUT2 (hsGLUT2) (human, UniProt P11168 1-524)
T3 construct: whole, on cells
T3 sequence (looked up): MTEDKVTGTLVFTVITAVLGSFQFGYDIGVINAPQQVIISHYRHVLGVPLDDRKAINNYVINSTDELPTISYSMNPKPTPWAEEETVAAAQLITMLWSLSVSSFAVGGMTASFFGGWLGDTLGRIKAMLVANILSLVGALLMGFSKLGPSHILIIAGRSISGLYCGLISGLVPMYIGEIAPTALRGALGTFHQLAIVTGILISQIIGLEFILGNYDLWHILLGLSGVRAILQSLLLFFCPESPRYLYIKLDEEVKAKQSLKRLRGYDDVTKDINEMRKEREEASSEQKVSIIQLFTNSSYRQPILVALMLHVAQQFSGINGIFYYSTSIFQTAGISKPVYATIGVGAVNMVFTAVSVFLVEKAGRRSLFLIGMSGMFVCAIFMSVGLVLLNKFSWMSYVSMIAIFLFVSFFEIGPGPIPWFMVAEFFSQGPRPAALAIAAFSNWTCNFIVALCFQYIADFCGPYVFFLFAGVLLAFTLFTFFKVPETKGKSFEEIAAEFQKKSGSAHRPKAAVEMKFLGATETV
Procedure: as §1

human GLUT3 (hsGLUT3) = biological target: T4, human GLUT3 (hsGLUT3) (human, UniProt P11169 1-496)
T4 construct: whole, on cells
T4 sequence (looked up): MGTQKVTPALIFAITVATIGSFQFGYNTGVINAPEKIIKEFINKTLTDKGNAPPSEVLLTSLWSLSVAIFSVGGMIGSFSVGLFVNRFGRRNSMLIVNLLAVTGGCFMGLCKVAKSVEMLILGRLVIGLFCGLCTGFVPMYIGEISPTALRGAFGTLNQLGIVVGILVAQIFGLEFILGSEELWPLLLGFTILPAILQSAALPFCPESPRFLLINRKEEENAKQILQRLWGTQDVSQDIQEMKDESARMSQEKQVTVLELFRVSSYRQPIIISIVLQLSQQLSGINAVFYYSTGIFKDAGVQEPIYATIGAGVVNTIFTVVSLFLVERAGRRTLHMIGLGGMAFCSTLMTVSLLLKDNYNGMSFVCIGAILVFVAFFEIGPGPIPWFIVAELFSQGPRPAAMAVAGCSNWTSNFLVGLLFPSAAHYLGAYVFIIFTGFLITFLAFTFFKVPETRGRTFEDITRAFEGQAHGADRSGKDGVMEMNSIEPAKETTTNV
Procedure: as §1

Measured: binding result

B1: AB108 (Fc fusion)
scFv: ALTQPSSVSANLGGTVKITCSGSSGSYGWYQQKAPGSAPVTLIYRNDKRPSDIPSRFSGSESGSTGTLTITGVQAEDEAVYFCGGYDSSAGYAAFGAGTTLTVLGQSSRSSGGGGSSGGGGSAVTLDESGGGLQTPGGALSLVCKASGFTFSSHGMGWVRQAPGKGLEWVGSISTGRYTFYAPAVKGRATISRDNGQSTLRLQLNNLRAEDTGTYYCTKCAGLNGCGGGEIDAWGHGTEVIVSS
notes: Bivalent scFv-Fc; also called MAb AB108; not shown: Fc fragment of human IgG1, cloned in frame with the scFv
no binding (tested: 2 µg/ml): all assays above

B2: AB111 (Fc fusion)
scFv: ALTQPSSVSANPGETVKITCSGSGSWYGWFQQKSPGSAPVTVIYSNDKRPSDIPSRFSGSKSGSTSTLTITGVQVEDEAVYYCGNWDIFGAGTTLTVLGQSSRSSGGGGSSGGGGSAVTLDESGGGLQTPGGALSLVCKASGFTFSSHGMGWVRQAPGKGLEWVASISTGRYTFYAPAVKGRATISRDNGQSTVRLQLNNLRAEDTATYYCTKCAGLNGCGGGEIDAWGHGTEVIVSS
notes: Bivalent scFv-Fc; also called MAb AB111; not shown: Fc fragment of human IgG1, cloned in frame with the scFv
no binding (tested: 2 µg/ml): all assays above

B3: AB105 (Fc fusion)
scFv: ALTQPSSVSANPGETVEITCSGDSSYYGWYQQKSPGSAPVTVIYANTNRPSDIPSRFSGSASGSTATLTITGVQAEDEAVYYCGSADSTYAGIFGAGTTLTVLGQSSRSSGGGGSSGGGGSAVTLDESGGGLQTPGGALSLICKASGFTFSSYTMNWVRQAPGKGLEWVGVISNSGRTTNYGAAVQGRATISRDNGQSTVRLQLNNLRAEDTGTYYCAKSSASASCAWWAGRSYPCSANRIDAWGHGTEVIVSS
notes: Bivalent scFv-Fc; also called MAb AB105; not shown: Fc fragment of human IgG1, cloned in frame with the scFv
no binding (tested: 2 µg/ml): all assays above
